One assay has as its target T1, dimeric mouse BMPR1B (mouse, UniProt P36898 14-126, limits assumed).
T1 construct: Construct and dimerising part not described; also called Mouse Receptor BMPR1B
T1 sequence (looked up): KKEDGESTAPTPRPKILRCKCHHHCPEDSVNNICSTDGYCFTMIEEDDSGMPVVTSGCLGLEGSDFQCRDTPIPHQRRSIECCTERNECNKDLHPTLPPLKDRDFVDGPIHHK
Kind of assay: SPR Biacore T200, mAb captured by anti-human Fab, 100 nM dimeric receptor injected, 25C. The method, then: (§1) ACVR1 mAbs were tested for cross-reactivity to a panel of bone morphogenic protein type 1 receptors including human and mouse ACVR1, BMPR1A, and BMPR1B, as well as ACVRL1 on a Biacore T200 as follows. In order to measure the specificity of ACVR1 mAbs, ACVR1 mAbs were captured with anti-human Fab immobilized on a CM5 chip. 100 nM or 10 nM of dimeric human or mouse ACVR1, ACVRL1, BMPR1A or BMPR1B were injected at 30 μL/min for 2 min (duplicate injections) and the experiment was performed at 25° C. Binding of different receptors to the captured mAb was determined using Scrubber 2.0c software.
A general note: Surface plasmon resonance follows binding to a sensor surface in real time, without labels.

Assay [1] concerns the target T2, dimeric human BMPR1A (human, UniProt P36894 24-152, limits assumed).
T2 construct: Construct and dimerising part not described; also called Human Receptor BMPR1A
The description is as above. As for the experimental part: as §1

In another assay the target is T3, dimeric human ACVRL1 (human, UniProt P37023 22-118, limits assumed).
T3 construct: Construct and dimerising part not described; also called Human Receptor ACVRL1
Described as above. The method, then:
as §1

In assay [2] the target is T4, dimeric human BMPR1B (human, UniProt O00238 14-126, limits assumed).
T4 construct: Construct and dimerising part not described; also called Human Receptor BMPR1B
T4 sequence (looked up): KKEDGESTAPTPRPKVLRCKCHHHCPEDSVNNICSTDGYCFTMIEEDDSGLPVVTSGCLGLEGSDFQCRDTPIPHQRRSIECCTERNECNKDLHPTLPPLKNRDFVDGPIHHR
The assay is described as above. As for the experimental part: as §1

The next assay addresses T5, dimeric human ACVR1 (human, UniProt Q04771 21-123, limits assumed).
T5 construct: ACVR1'; also called Human Receptor ACVR1
T5 sequence (looked up): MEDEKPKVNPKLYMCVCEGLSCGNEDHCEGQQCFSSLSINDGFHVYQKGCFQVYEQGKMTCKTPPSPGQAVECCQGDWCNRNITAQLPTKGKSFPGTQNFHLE
Described as above. The method, then: as §1

For assay [3], the target named is T6, human ACVR1 extracellular domain expressed with a C-terminal myc-myc-hexahistidine tag (human).
T6 construct: also called hACVR1-mmh; hACVR1.mmh
T6 chain: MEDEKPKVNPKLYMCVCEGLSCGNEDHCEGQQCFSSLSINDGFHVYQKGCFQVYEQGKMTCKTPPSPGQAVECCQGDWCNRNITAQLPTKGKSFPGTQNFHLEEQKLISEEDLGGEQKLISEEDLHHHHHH
Briefly: SPR Biacore T200, mAb captured by anti-human Fc, hACVR1-mmh injected, 37C. The method, then:
Equilibrium dissociation constants (KD) for ACVR1 binding to purified anti-ACVR1 monoclonal antibodies were determined using a real-time surface plasmon resonance (SPR) based Biacore T200 biosensor. All binding studies were performed in 10 mM HEPES, 150 mM NaCl, 3 mM EDTA, and 0.05% v/v surfactant Tween-20, pH 7.4 (HBS-EP) running buffer at […]. The Biacore CM5 sensor surface was first derivatized by amine coupling with a monoclonal mouse anti-human Fc antibody (REGN2567) to capture anti-ACVR1 monoclonal antibodies. Different concentrations of ACVR1 reagents, human ACVR1 extracellular domain expressed with a C-terminal myc-myc-hexahistidine tag (hACVR1-mmh; REGN3111, SEQ ID NO: 63), mouse ACVR1 extracellular domain expressed with a C-terminal myc-myc-hexahistidine tag (mACVR1-mmh; REGN3407, SEQ ID NO: 65), human ACVR1 extracellular domain expressed with a C-terminal mouse IgG2a Fc tag (hACVR1-mFc; REGN3112, SEQ ID NO: 64); and mouse ACVR1 extracellular domain expressed with a C-terminal mouse IgG2a Fc tag (mACVR1-mFc, R&D system), at concentrations ranging from 0.41 nM to 100 nM in a series of 3-fold dilutions prepared in HBS-EP running buffer were injected at a flow rate of 50 μL/min for 1.5 minutes. The dissociation of different ACVR1 reagents bound to anti-ACVR1 monoclonal antibodies was monitored for 20 minutes in HBS-EP running buffer. At the end of each cycle, the anti-ACVR1 monoclonal antibodies capture surface was regenerated using a 12 sec injection of 20 mM H3PO4. The association rate (ka) and dissociation rate (kd) were determined by fitting the real-time binding sensorgrams to a 1:1 binding model with mass transport limitation using Scrubber 2.0c curve-fitting software. Binding dissociation equilibrium constant (KD) and dissociative half-life (t½) were calculated from the kinetic rates as: […]
Binding kinetics parameters for different ACVR1 reagents to anti-ACVR1 monoclonal antibodies of the invention at 37° C. are shown in Table 5 through Table 8.

Assay [4] addresses T2, dimeric human BMPR1A. Kind of assay: SPR Biacore T200, mAb captured by anti-human Fab, dimeric receptor injected, 25C. As for the experimental part: as §1
Assay [5] concerns the target T4, dimeric human BMPR1B. Described as above. As for the experimental part: as §1
A further assay concerns the target T7, dimeric mouse BMPR1A (mouse, UniProt P36895 24-152, limits assumed).
T7 construct: Construct and dimerising part not described; also called Mouse Receptor BMPR1A
Described as above. As for the experimental part:
as §1

Another assay addresses T8, dimeric mouse ACVRL1 (mouse, UniProt Q61288 23-119, limits assumed).
T8 construct: Construct and dimerising part not described; also called Mouse Receptor ACVRL1
T8 sequence (looked up): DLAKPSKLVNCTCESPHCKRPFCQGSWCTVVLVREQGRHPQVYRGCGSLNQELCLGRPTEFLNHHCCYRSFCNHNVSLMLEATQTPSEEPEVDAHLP
The assay is described as above. The method, then:
as §1

We go through three molecules from patent US20240150474A1 (Regeneron, published 2024).

Usually Kd stands for the concentration at which binding is half-saturated. A higher Kd goes with lower affinity. The koff is the rate constant with which the complex falls apart. Higher therefore signals a short-lived complex. In general, kon refers to the rate constant with which the complex forms. Read a high kon as fast association. Usually t½ stands for the time in which the quantity being followed falls by half.

T3 sequence (P37023 22-118 limits assumed): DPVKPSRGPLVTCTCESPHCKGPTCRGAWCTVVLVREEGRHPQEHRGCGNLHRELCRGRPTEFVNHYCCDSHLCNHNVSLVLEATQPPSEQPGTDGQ
T2 sequence (P36894 24-152 limits assumed): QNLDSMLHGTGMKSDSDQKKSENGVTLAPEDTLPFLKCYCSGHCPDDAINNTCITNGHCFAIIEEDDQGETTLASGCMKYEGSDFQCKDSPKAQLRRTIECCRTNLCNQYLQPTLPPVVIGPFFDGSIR
T7 sequence (P36895 24-152 limits assumed): as the sequence (P36894 24-152 limits assumed) above, with S16L, S21P, A74T counted along it

B1: REGN 5167 (antibody, human IgG4 S228P, kappa, V domains shown)
VH: QLQLQESGPGLVKPSETLSLTCTVSGGSITSSSYYWAWIRQPPGKGLEWIGKIYYSGSTHYNPSLKSRVTISVDTSKNQFSLKLSSVTAADTAVYYCARVGGHGYGDSAGLAFDIWGQGTMVTVSS
VL: EIVLTQSPGTLSLSPGERATLSCRASQSVSSAFLAWYQQKPGQAPRLLIYGASYRHTGIPDRFSGSGSGTDFTLTISRLEPEDFAVYYCQHYGVGPRTFGGGTKVEIKR
notes: also called REGN 5167-L1
As to B1, the “100 nM Mouse Receptor Binding” value with dimeric mouse BMPR1B was 1 RU. In addition, the “100 nM Human Receptor Binding” value with dimeric human BMPR1A [1] worked out at 2 RU; with dimeric human ACVRL1, 1 RU; with dimeric human BMPR1B [2] it was 10 RU; in the assay with dimeric human ACVR1, 130 RU. Besides, the “100 nM Ag Bound (RU)” value in [3] was found to be 43 RU. Besides, the Kd in assay [3] is 0.227 nM. In [3], this molecule showed an off-rate (koff) of 0.000163 s⁻¹. This molecule also registered a kon in assay [3] of 718000 M⁻¹ s⁻¹. For the same molecule, the t½ in [3] stood at 1.18 h. In addition, the binding result with dimeric human BMPR1A [4], with dimeric human BMPR1B [5], in the assay with dimeric mouse BMPR1A and with dimeric mouse ACVRL1 was “no binding (tested: 100 nM)” in each case.

B2: REGN 5166 (antibody, human IgG4 S228P, kappa, V domains shown)
VH: QVQLVESGGGVVQPGRSLRLSCAASGFTFSAYWMHWVRQAPGKGLEWVAVISYDGSNKYYADSVKGRFTISRDHSKNTLYLQMNSLRAEDTAVYYCAKGDAYDSWRILLGGDYYGMDVWGQGTTVTVSS
VL: EIVLTQSPGTLSLSPGERATLSCRASQSVSSSYLAWYQQKPGQAPRPLIYGASSRATGIPDRFSGSGSGTDFTLTISRLEPEDFAVYYCQQGGDAPPYTFGGGTKVEIKR
notes: also called REGN 5166-L1
Turning to B2, the “100 nM Mouse Receptor Binding” value with dimeric mouse BMPR1B is 1 RU. In addition, the “100 nM Human Receptor Binding” value with dimeric human BMPR1A [1] came to 2 RU; with dimeric human ACVRL1 it was 4 RU; in the assay with dimeric human BMPR1B [2], 24 RU; with dimeric human ACVR1, 147 RU. Further, in assay [3], the “100 nM Ag Bound (RU)” value worked out at 43 RU. The molecule further had a Kd in assay [3] of 0.26 nM. In assay [3], this molecule gave a koff of 0.000176 s⁻¹. In assay [3], this molecule yielded a kon of 677000 M⁻¹ s⁻¹. The t½ in assay [3] worked out at 1.08 h. In addition, the binding result with dimeric human BMPR1A [4], with dimeric human BMPR1B [5], in the assay with dimeric mouse BMPR1A and with dimeric mouse ACVRL1 was “no binding (tested: 100 nM)” in each case.

B3: REGN 5168 (antibody, human IgG4 S228P, kappa, V domains shown)
VH: QVQLVQSGAEVKEPGASVKVSCKASGYTFAEYYMHWVRQAPGQGLEWMGAINPSGSHTSYAQKFQGRVTMTRDTSTSTVYMELSSLRSEDTAVYYCARSISGKRGGDYYGMDVWGQGTTVTVSS
VL: DIQMTQSPSTLSASVGDRVTITCRASQSISSWLAWYQQKPGKAPKLLIYKASSLESGVPSRFSGSGSGTEFTLTISSLQPDDFATYYCQQYSIFPFTFGGGTKVEIKR
notes: also called REGN 5168-L1
For B3, the “100 nM Mouse Receptor Binding” value in the assay with dimeric mouse BMPR1B was found to be 1 RU. Moreover, the “100 nM Human Receptor Binding” value came to 2 RU with dimeric human BMPR1A [1], 2 RU with dimeric human ACVRL1, 20 RU with dimeric human BMPR1B [2] and 147 RU in the assay with dimeric human ACVR1. Moreover, the “100 nM Ag Bound (RU)” value in [3] worked out at 42 RU. The molecule also had a Kd in assay [3] of 1.21 nM. The molecule further yielded a dissociation rate constant (koff) in assay [3] of 0.00159 s⁻¹. Moreover, the on-rate (kon) in [3] amounted to 1.31e+06 M⁻¹ s⁻¹. Moreover, the t½ in assay [3] came to 0.117 h. For the same molecule, the binding result with dimeric human BMPR1A [4], in the assay with dimeric human BMPR1B [5], with dimeric mouse BMPR1A and in the assay with dimeric mouse ACVRL1 was “no binding (tested: 100 nM)” in each case.
